Experimental data published in the supplement of paper PMC10567573.
± gives the standard deviation.

Assay: protein stability index of a GFP-peptide fusion (GPS, HEK-293T) (PSI 1-6); higher = more stable
[1] = treatment: DMSO, c terminus: a fixed tail appended
[2] = treatment: MLN4924 1 uM, 8 h, c terminus: a fixed tail appended
[3] = treatment: DMSO, c terminus: native
[4] = treatment: MLN4924 1 uM, 8 h, c terminus: native
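Also: 24-mer peptide tiles fused after GFP, lentivirally expressed, FACS-sorted into six equal bins by GFP/DsRed ratio, decoded by Illumina sequencing, PSI is the read-weighted mean bin number.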

Sequence	protein stability index [1]	protein stability index [2]	protein stability index [3]	protein stability index [4]
KAFSRSSGLFNHRGIHNIQKRYHC [ZSCAN9]	2.63 ± 0.39	2.45 ± 0.14		
SLGVPGSVGGVPGGTGSGDGNKIF [ZBTB22]	4.38 ± 0.26	4.3 ± 0.22		
SASRKSAEQLRIELNAEKFKNSLL [WEE1]	3.2 ± 0.3	3.29 ± 0.38		
PGKETLESALIALDSEKPKKLRFH [EHMT1]	4.06 ± 0.24	4.11 ± 0.45		
HQEQVEDLTASHDAALLEMENNHT [MTUS2]	5.51 ± 0.2	5.4 ± 0.3		
LQNEVPPQPDPVFLEALSSRYLGD [SERTAD3]	4.32 ± 0.15	4.25 ± 0.14		
FKNSLLQKELKKAQMAKAAAEERA [WEE1]	4.37 ± 0.15	4.34 ± 0.087		
AMAMGTPSTTERISTSGQAGTSSH [PXN]	4.86 ± 0.31	4.98 ± 0.1		
EQASAFQEQEIDGKSLLLMTRNDV [SAMD13]	4.74 ± 0.12	4.78 ± 0.14		
DLLHNVSQNIAAETRAEDPPWFEG [DFFB]	3.753 ± 0.011	3.85 ± 0.13		
PLGGGVGGQDGLGAPKDQQQPPQQ [KLHL14]	5.31 ± 0.39	5.33 ± 0.26		
QGCPGAKKHEFLTSVLDALSTDMV [SMOC2]	2.68 ± 0.26	3.07 ± 0.27		
EEIVFNLTNNVDLDNTKKKMEIYQ [MNAT1]	4.05 ± 0.39	4.02 ± 0.35		
RLVYKFGKNSSGWKEEEVLQSRN [ELF3]			2.76 ± 0.35	3.21 ± 0.85
LLSQEKLQEQHLSSPQGVQLDIAS [BCL2L13]	4.45 ± 0.14	4.36 ± 0.15		
NFLIGRQGNKKEHVIHIIDFGLAK [CSNK1G1]	2.45 ± 0.66	1.89 ± 0.39		
TIVKARDKLYHPECFMCSDCGLNL [PDLIM4]	2.19 ± 0.44	2.42 ± 0.19		
RWSPAQEESFRQMVVIHKEIPTGK [ZNF232]	3.87 ± 0.42	3.99 ± 0.17		
LPGPKGDDGKLGATGPMGMRGFKG [SCARA5]	4.7 ± 0.46	4.48 ± 0.2		
IVLDRALHIPMYFFLAILSCSEIC [OR10K2]	3.1 ± 0.18	3.19 ± 0.29		
FFPQHPNFCEPQDYRPMNHEAFKD [CDC25B]	3.81 ± 0.33	4.09 ± 0.21		
SASSDEPYARIQQSRRQCHAEEDQ [SMIM2]	5.49 ± 0.17	5.63 ± 0.2		
AAIFKIYLSCLEELMKCQIIYPRQ [TRIP13]	3.08 ± 0.43	3.21 ± 0.17		

Sequence	protein stability index [1]	protein stability index [2]	protein stability index [3]	protein stability index [4]
YSSGPQSWYPKANNQDFIPFTKKR [ZC2HC1C]	3.07 ± 0.54	3.68 ± 0.22		
TSEESRPRLSQLSVTDVTTSSLRL [TNXB]	4.18 ± 0.29	4.24 ± 0.26		
TSIVQAAAGGVPGGGSNNGKTPVC [PDLIM7]	4.63 ± 0.17	4.81 ± 0.14		
ERALDATEVPFSITTDNLQCRERR [TEKT4]	4.88 ± 0.069	5.06 ± 0.11		
NNSWIRKNSTMVNSEDIFLLLCLK [TRIM43]	2.84 ± 0.42	2.23 ± 0.43		
SSAIEVIMLRSNESFTMDDMSWTC [VDR]	2.6 ± 0.53	2.29 ± 0.38		
KRIKVPDYKDRSVFGVPLTVNVQR [DLC1]	3.02 ± 0.42	3.09 ± 0.35		
VPQAPRRLRASFSRKPSLKGNRED [PLEKHN1]	4.71 ± 0.097	4.83 ± 0.13		
MATSELSCEVSEENCERREAFWAE [TCAP]	5.07 ± 0.079	5.08 ± 0.32		
HTLLNELERNPNGVADGVIKSVLW [CDKL4]	2.58 ± 0.49	2.7 ± 0.4		
MGKLLQQPNTYADFEFLAFWQTQY [PKD2L1]	2.21 ± 0.56	2.27 ± 0.23		
ACRFTKCLRVGMLKEGVRLDRVRG [ESRRA]	2.31 ± 0.17	2.25 ± 0.19		
RLEQEIATYRRLLEGEDAHLSSQQ [KRT16]	3.95 ± 0.097	4.21 ± 0.18		
PTYSDFCQFRPPVRVNDGGGSHPS [VDR]	3.9 ± 0.25	4.03 ± 0.18		
PPQPCATACKPVIRVPSVPPVPCV [KRT36]	2.9 ± 0.28	2.91 ± 0.16		
NSDMQILTASGDGTCALWDVESGQ [GNB5]	4.81 ± 0.085	4.61 ± 0.36		
EDSESLRIKEVEHMTRHLEESEKA [LRRC45]	5.5 ± 0.23	5.51 ± 0.2		
FLDLFRYRVLLGHTLILMFIWFVC [SLC22A15]	2.73 ± 0.42	2.85 ± 0.71		
HMVSDGSWVVRVQAAKLLGSMEQV [INTS4]	2.48 ± 0.74	2.1 ± 0.21		
FHGKYSTINPLWHIRHLGWNPDAR [GLT8D2]	2.57 ± 0.39	2.31 ± 0.21		
EKDNSRRMLTDKEREMAEIRDQMQ [LMNB1]	5.3 ± 0.12	5.32 ± 0.13		
MAQQQMTSSQKALMLELKSLQEEP [UBE2R2]	4.33 ± 0.28	4.29 ± 0.24		
RDFLLDEANGLLPDDKLTLFCEVS [SPOPL]	3.03 ± 0.2	3.08 ± 0.34		

Sequence	protein stability index [1]	protein stability index [2]	protein stability index [3]	protein stability index [4]
GRGLYVYSLQMKRVIACQKTAHDS [WDR41]	2.08 ± 0.42	2.15 ± 0.34		
RVGQLQEALNERHSIINALKAKLQ [LRRC45]	2.45 ± 0.43	2.46 ± 0.3		
SALTEGAKEEGGEEVAKAVLEQEE [EPB41L3]	5.63 ± 0.3	5.54 ± 0.41		
KSLDNMPNDEHWKALSRKSTSFRV [FBXO33]	3.4 ± 0.11	3.56 ± 0.21		
VCRIGDWLQERYEIVGNLGEGTFG [CLK3]	2.22 ± 0.42	2.37 ± 0.33		
ELEMIGFIENNVSKLSLLLNDISR [TRIP13]	2.2 ± 0.31	2.63 ± 0.41		
RAEKEACQREKELPAAVHPFHFV [ZBED2]			4.87 ± 0.39	4.8 ± 0.34
RRSMKRKALFTCPFNGDCRITKDN [VDR]	3.29 ± 0.45	3.48 ± 0.3		
GGWNFSTQKFTDMVATANNRQTFV [CHIT1]	2.55 ± 0.29	2.81 ± 0.31		
IQIAFEEVPQLPPRASISHVTCVD [C2CD2L]	2.39 ± 0.16	2.46 ± 0.23		
IIRLVRVFRIFKLSRHSKGLQILG [KCNA4]	2.25 ± 0.53	2.3 ± 0.4		
SIVILDNSPGAYRSHPDNAIPIKS [CTDNEP1]	2.82 ± 0.27	2.91 ± 0.57		
NFNPLLVAGGVAVAAIALILGVAF [CEND1]	3.24 ± 0.27	3.47 ± 0.22		
HPVCSLCWSRDGHKLVSASTDNIV [RBBP5]	2.72 ± 0.28	2.95 ± 0.44		
YDPWNAPEGIQKVAKCLIGVNYPK [CRY1]	2.69 ± 0.13	2.87 ± 0.16		
GTQHMFEDDPSVLYVSLHRYDHGT [HDAC6]	2.34 ± 0.37	2.5 ± 0.45		
EDLLAKEKDNSRRMLTDKEREMAE [LMNB1]	5.6 ± 0.31	5.65 ± 0.28		
SLTVPLLGAMMLLESPIDPQPLSF [APMAP]	2.46 ± 0.56	2.81 ± 0.51		
AVPTDEARAFAEKNNLSFIETSAL [RAB11B]	3.31 ± 0.31	3.47 ± 0.54		
QYMNEGELRVLADTYDSVYLHPNS [HDAC6]	2.83 ± 0.21	3.33 ± 0.52		
EVRAKFKFSLLNAKREETKAMESQ [SPOPL]	4.06 ± 0.29	3.97 ± 0.33		
RQRLQDISSLPLPQSLKNYLQYQ [SPSB4]			3.65 ± 0.074	3.65 ± 0.31
DSSSSCSDHCITSSDMMDSSSFSN [VDR]	4.94 ± 0.28	5.01 ± 0.27		

Sequence	protein stability index [1]	protein stability index [2]	protein stability index [3]	protein stability index [4]
ALGKLLPRETLCTELVLSDCMLSE [LRRC45]	2.22 ± 0.32	2.67 ± 0.45		
IPKCSKIVIDFDSINSRPSQKLQ [DCTD]			3.14 ± 0.31	3.38 ± 0.32
VYASDKEWIRFDQSNVLCSIFGIC [PTGFR]	2.56 ± 1.4	2.24 ± 0.78		
LEDFFVMSDYRGFGIGSEILKNLS [SAT1]	2.38 ± 0.14	2.28 ± 0.44		
QCPGLGPAPTPTPPGRLGAPYSEA [ZBED3]	4.35 ± 0.15	4.25 ± 0.067		
SLIRKHAQTFIALCATDFKFAMYP [CCND2]	3.01 ± 0.18	2.97 ± 0.51		
EETIASLQMEVCRLKKEEEDRIVT [CEP70]	4.65 ± 0.072	4.8 ± 0.32		
ITEKIDVAFVDRADIKQYIGPPSA [TRIP13]	3.6 ± 0.15	3.54 ± 0.58		
NTNNLTFLMDLPSAGRSMPEASDQ [RNF180]	4.28 ± 0.14	4.39 ± 0.2		
GKNWSKLCKDCQVIDGRNVTVTDV [TPPP]	3.67 ± 0.14	3.92 ± 0.23		
ALEQREQDAVDQVKVIMDALDERA [TRIM29]	5.33 ± 0.097	5.31 ± 0.29		
NKYMVTDGAAYIGNFDWVGNDFTQ [PLD5]	2.87 ± 0.25	2.62 ± 0.3		
FQVVKDAVLDCLLDFLPKDVKKEK [TENT5D]	5.16 ± 0.18	4.95 ± 0.23		
FKKFIRRDFLLDEANGLLPDDKLT [SPOPL]	2.27 ± 0.097	2.41 ± 0.24		
AIAMYFLPPSPRFLVMKGQEGAAS [SLC2A12]	2.17 ± 0.53	1.97 ± 0.31		
IAVRKSRDKAKMRNLETQHKVLEL [CEBPB]	3.14 ± 0.36	3.54 ± 0.12		
SLCTHLIYAFAGMTNHQLSTTEWN [CHIT1]	3.43 ± 0.33	3.27 ± 0.38		
CYAAMKKKIYAMGGGSYGKLFESV [GAN]	2.16 ± 0.39	2.23 ± 0.45		
GVRVNNRFELINIDDLEDDPVVNG [TCF25]	4.41 ± 0.16	4.51 ± 0.18		
HNCAHFCINIPGSYVCRCKQGYIL [MATN2]	2.48 ± 0.2	2.71 ± 0.27		
